The text below walks through data of the DeepSol protein solubility set.

The nature of the data set: soluble on expression in E. coli; label from the status in PepcDB or PDB records.
“MTSKIALFDQTLIASLLQPLSLNQPDFKAYKTKVKLKISEQRNETSGEKELKFEISRSDDFEFLFSETLNNEKYQILARDHDLTVDFDAFPKVIIQHLLCKNIVKNLEEDGEVDARKKAGYHSIADPGKPTEINIILDAEKNFCSFELFSKTPISKGKIFSIKLHAVRGDHLISHLLKICSSQAVKLSTFYKSADELASLRQKCGDLEKQVEKLSGVKEEFEEMSEKFKELEDEVELVKEERENIRLLVEDKEDEVADLKQDTESLQKQLEENQEELEIVGNMLREEQGKVDQLQKRNVAHQKEIGKLRAELGTAQRNLEKADQLLKRNSQQQNQQSLDMRKLGELEADLKEKDSMVESLTETIGILRKELENEKLKAAENMDSFEKLSMENENLKEKIAHYRAQRFSPAPSGLPGLQTGLTNRLTPSFKPVLGPHTPYGANLNSRTPFRDNTTLNFQNSTIATPHAFRFNSQLIADETTGSSVTNTPPAQR”: the “soluble on expression in E. coli” value is recorded as “not soluble”.

As to “AHHHHHHGSKRVWLVIPDTNFLFIPGQFGVDIISELERILDVNYKIVIPNIVLEELKTILREGKLRGKDLIAARMALKLAERFPTIYVGDFMSKTTDELIYEFAISNDNVIVCTNDKQLRKRLREAGVPVVFLRQKKKLELEGMLG”, the “soluble on expression in E. coli” value is on record as “soluble”. As for “MEERNHENTLEKDLEAVGQEAQALEERLKAAEEELKGLKDKYLRLLADFDNYRKRMEEELKAREREGVLKALRALLPVLDDLDRALEFAEASPESIRQGVRAIRDGFFRILAGLGVEEVPGEGEAFDPRYHEAVGLLPGEPGKVAKVFQRGFRMGEALVRPARVAVGEEKREEADLE”, the “soluble on expression in E. coli” value was “soluble”. For the sequence “ESEPQPEPCPGRAGAAARARWCPQPRPLVLLSLGALEFVSLSQQAFQICPVFVVCGLYQDGNSNKSFLLRSWCLHPEGTVCASSPERKDLPEALGNDPGTPGQRGLKLFGKAAGLLGKMAMAPSPSLVQVYTSPAAVAVWEWQDGLGTWHPYSATVCSFIEQQFVQQKGQRFGLGSLAHSIPLGQADPSLAPYIIDLPSWTQFRQDTGTMRAVRRHLFPQHSAPGRGVVWEWLSDDGSWTAYEASVCDYLEQQVARGNQLVDLAPLGYNYTVNYTTHTQTNKTSSFCRSVRRQAGPPYPVTTIIAPPGHTGVACSCHQCLSGSRTGPVSGRYRHSMTNLPAYPVPQHPPHRTASVFGTHQAFAPYNKPSLSGARSAPRLNTTNAWGAAPPSLGSQPLYRSSLSHLGPQHLPPGSSTSGAVSASLPSGPSSSPGSVPATVPMQMPKPSRVQQALAGMTSVLMSAIGLPVCLSRAPQPTSPPASRLASKSHGSVKRLRKMSVKEATPKPEPEPEQVIKNYTEELKVPPDEVCVLGPWLPLFLFGNNSTWKGHPPHLA”, the “soluble on expression in E. coli” value is reported as “soluble”. With “MTQKIEQSQRQERVAAWNRRTECDLAAFQNSPKQTYQAEKARDRKLCANLEEAIRRSGLQDGMTVSFHHAFRGGDLTVNMVMDVIAKMGFKNLTLASSSLSDCHAPLVEHIRQGVVTRIYTSGLRGPLAEEISRGLLAEPVQIHSHGGRVHLVQSGELNIDVAFLGVPSCDEFGNANGYTGKACCGSLGYAMVDADNAKQVVMLTEELLPYPHNPASIEQDQVDLIVKVNRVGDAAKIGAGTTRMTTNPRELLIARSAADVIVNSGYFKEGFSMQTGTGGASLAVTRFLEDKMRSRDIRADFALGGITATMVDLHEKGLIRKLLDVQSFDSHAAQSLARNPNHIEISANQYANWGSKGASVDRLDVVVLSALEIDRQFNVNVLTGSDGVLRGASGGHCDTAIASALSIIVAPLVRGRIPTLVDNVLTCITPGSSVDILVTDHGIAVNPARPELAERLQEAGIKVVSIEWLRERARLLTGEPQPIEFTDRVVAVVRYRDGSVIDVVHQVKELEHHHHHH”, the “soluble on expression in E. coli” value is on record as “soluble”.

Turning to “MITDCCPGFGSVAKYIAVSMLEASFDVASMAKTSTKVFILEVMGRHAGWIAAAGGLASNEDHEVPIIILFPEVTFDQEKFLAKTDHYVKEYGYCTVVVSEGVKGTDGKFLSDQGLRDAFGHAQLGGVAPVIANIVKNGLGLEHHHHHH”, the “soluble on expression in E. coli” value is “soluble”.

In the case of “GSMLGMIRNSLFGSVETWPWQVLSTGGKEDVSYEERACEGGKFATVEVTDKPVDEALREAMPKIMKYVGGTNDKGVGMGMTVPVSFAVFPNEDGSLQKKLKVWFRIPNQFQGSPPAPSDESVKIEEREGITVYSTQFGGYAKEADYVAHATQLRTTLEGTPATYQGDVYYCAGYDPPMKPYGRRNEVWLVKA”, the “soluble on expression in E. coli” value is on record as “soluble”. Consider “KELKIILLTDMHVGSLLQKDFVDYIVEEVNQKEVDMVLIGGDLVDESIEKVKSFLLPLNNLKSTHGTFYVPGNHEYYHGIEPILSFLDTLNLTILGNECVHLGGINLCGVYDYFARKRQNFAPDIDKALKKRNESKPTILLAHQPKQIRSLKESHSVDLVLSGHTHAGQIFPFSLLVKLAQTYLHGLYKHSP”, for which the “soluble on expression in E. coli” value is “not soluble”. As to “MDRNSLSNSLKTCYKYLNQTSRSFAAVIQALDGEMRNAVCIFYLVLRALDTLEDDMTISVEKKVPLLHNFHSFLYQPDWRFMESKEKDRQVLEDFPTISLEFRNLAEKYQTVIADICRRMGIGMAEFLDKHVTSEQEWDKYCHYVAGLVGIGLSRLFSASEFEDPLVGEDTERANSMGLFLQKTNIIRDYLEDQQGGREFWPQEVWSRYVKKLGDFAKPENIDLAVQCLNELITNALHHIPDVITYLSRLRNQSVFNFCAIPQVMAIATLAACYNNQQVFKGAVKIRKGQAVTLMMDATNMPAVKAIIYQYMEEIYHRIPDSDPSSSKTRQIISTIRTQN”, the “soluble on expression in E. coli” value was “soluble”. Consider “MKKEIKFSLVYRDMWQSSGKYQPRADQLVRIAPLIIEMGCFSRVETNGGAFEQVNLLYGENPNKAVRAFTKPFHEASIQTHMLDRGLNGLRMYPVPADVRRLMYKVKHAQGVDITRIFCGLNEVRNIIPSIHYALEAGMIPQATLCITFSPVHTVEYYTAIAERLIEAGAPEICLKDMAGVGRPEMLGRLTKAIKERHPEIIIQYHGHSGPGLSMASILEVCENGADIIDVAMEPISWGKVHPDVISVQAMLKDAGFQVPEINMKAYMKARAMTQEFIDDFLGYFMDPTNKHMSSLLLKCGLPGGMMGSMMADLKGVHSGINLILRGKNEPELSIDDLLVMLFDEVEYVWPKLGYPPLVTPFSQYVKNVALMNVMSLIKGEERWTMIDNHTWDMILGKSGRLPGALAPEIIALAKEKGYEFTDEDPQKNYPDQLDEYRKEMTENGWDFGQDDEELFELAMHDRQYRDYKSGIAKKRFEDDLQRAKDAALAKQGFSEEEVKRMKRAKAEPVTAMEKGQIIWEIDVESPSMPPEVGHKYDPDDVFCYIATPWHTYDKVLANFSGRVIEVCAKQGALVDKGEPLAYIERCEEPA”, for which the “soluble on expression in E. coli” value is “not soluble”.

Turning to “GKREPDLTGGFSTYLKYKNITFNALFSFSFGNKMRLNDLYESSGQRLPYPDQNMSSEFVNRWREPGDEDRTIIPVLSDKSLQINDKDVTYRIADNGWDMYNKSDIRVVSGSFLRCRSMSIRYDFKREWLKPVYLKGASVSFDMGNVFVIKDKALKGRDPEQIGFGSRSIPPQRSYSLRFNITL”, the “soluble on expression in E. coli” value is “not soluble”. Consider “MRRNYSRVIDELRTDYGLNLVAIGQRLGTDPRTVGKWWQGKHNPNQESRKKLNRLYREVKETMMTQVNIFEEANDNTKQVMQVITTTNFHGQPLDIYGDIQEPLFLARAVAEMIDYTKTSQGYYDVQAMLRKVDEDEKLKGMALEGTTKNFRSGQKVWFLTEHGLYEVLMRSNKPKAKEFRKAVKNILKEIRLNGYYMQGELVQELAQPSTQKLPGISDLTYILNKLADLVDMDNLADISNGIDRVQQLVKLISL”, for which the “soluble on expression in E. coli” value was “not soluble”. As to “MIIGVLAIQGDVEEHEEAIKKAGYEAKKVKRVEDLEGIDALIIPGGESTAIGKLMKKYGLLEKIKNSNLPILGTCAGMVLLSKGTGINQILLELMDITVKRNAYGRQVDSFEKEIEFKDLGKVYGVFIRAPVVDKILSDDVEVIARDGDKIVGVKQGKYMALSFHPELSEDGYKVYKYFVENCVKK”, the “soluble on expression in E. coli” value is reported as “soluble”. Under “MGSDKIHHHHHHRLVEVGKGFSSTSVNTTVFRNNSIVTHGNTQYISYYDAEGWLMLGKRRLGTGEWILHRTQYKGHVKDAHNIISMMVDGDGYLHLSFDHHGHKLNYCRSIAPDTLVLGDKEPMIGNEEEDVTYPEFHLLADGGLLFVYRSGASGRGNMVMNRYDVKSRKWERVQDVLVDGENERNAYWQLYVDQSGTIHLSWVWRETWHVETNHDLCYARSFDGGRTWYKTNGQKYELPIRLGNAEYACRIPQNAELINQTSMSTDAGGHPYIATYWRNPDSDVPQYRIVWHDGVNWHNRQVSERKAPFSLKGGGTKMIPMSRPRMVVDNGEVYYLFRDQERGSKVSMYYTKDIQFGEWHVKDLTDFAVNAWEPSHDTELWKMKKQLHIYVQDTRQGDGEKQVETEPQMVYVLEL” stands “not soluble”. Turning to “MKKIAIFAGDGIGPEIVAAARQVLDAVDQAAHLGLRCTEGLVGGAALDASDDPLPAASLQLAMAADAVILGAVGGPRWDAYPPAKRPEQGLLRLRKGLDLYANLRPAQIFPQLLDASPLRPELVRDVDILVVRELTGDIYFGQPRGLEVIDGKRRGFNTMVYDEDEIRRIAHVAFRAAQGRRKQLCSVDKANVLETTRLWREVVTEVARDYPDVRLSHMYVDNAAMQLIRAPAQFDVLLTGNMFGDILSDEASQLTGSIGMLPSASLGEGRAMYEPIHGSAPDIAGQDKANPLATILSVAMMLRHSLNAEPWAQRVEAAVQRVLDQGLRTADIAAPGTPVIGTKAMGAAVVNALNLKD”, the “soluble on expression in E. coli” value is “soluble”. For the sequence “MGSDKIHHHHHHMSVETLPIILKELRLVSLLPHWQPLAEKAREQHWPVERYLAELCQLELSCREQKRLHRGLKEATLPIGKYLDTYDFSEVEGLSKKQVWHLADNAEWLKTGDNILLFGASGLGKTHIAAGLGYRLVEQGHRVKFMSASLLVQHLQKAKEELRLPEALVKLDRFAVLILDDLGYVQKSTEETSVLFELIAHRYERYSLIITSNQSFEDWDKLFSDTVMTVAAIDRLIHHAKILQCKGESYRRKEAQNKLN”, the “soluble on expression in E. coli” value is on record as “not soluble”. In the case of “MGSDKIHHHHHHMDALEIHRFLKGKIRTALPVEKVDRETLSLLYTPGVADVARACAEDPEKTYVYTSRWNTVAVVSDGSAVLGLGNIGPYGALPVMEGKAFLFKAFADIDAFPICLSESEEEKIISIVKSLEPSFGGINLEDIGAPKCFRILQRLSEEMNIPVFHDDQQGTAVVVSAAFLNALKLTEKKIEEVKVVVNGIGAAGYNIVKFLLDLGVKNVVAVDRKGILNENDPETCLNEYHLEIARITNPERLSGDLETALEGADFFIGVSRGNILKPEWIKKMSRKPVIFALANPVPEIDPELAREAGAFIVATGRSDHPNQVNNLLAFPGIMKGAVEKRSKITKNMLLSAVEAIARSCEPEPERIIPEAFDMKVHLNVYTAVKGSA”, the “soluble on expression in E. coli” value was “not soluble”. The value for “MSLKKILIIVPDGGMLFESAGIADILMQANRLHPEGAREICYQVKLATTQPHQVIHGQSGLNLLADHRLHEIDPREPLDTIMITGRGQNPQEGMAVVDWLRLAAPHARRIVSICGGAMLLAQTGLLDGRRATTHWKLLETMQAEFPQIRVEGGPLYIQDEHIWTSGGVSSGFDLTLALVEEDYGEGHHHHHH” was “not soluble”. “MCGRIAQKSAPEDYVEILWPNARLIFDDVAGPRYNIPPGTRPLTMHRLVDQAEALARLPWGYKPHGSRFFMVNAKLETIERHGWPWKLMIGVGRILVPADGWYEWRALDSGPKPAKQSYYIHGDAPLLFAGLSAWRRGAELDEAHGFAIVTNDALGGMVDVHDRRPVALPPELAREWVDPATPVARAKEILRAGLPETAFSWYPVRQEVGSSKYQLPDAVDPLLEHHHHHH”: the “soluble on expression in E. coli” value was “not soluble”.

Consider “DRETAPTIKINQITLRYSANQEPVLSGVSADIESGDCVAVIGPNACGKTSLLLSLLGVVEPQAGFIMVNNKNLKQYDPETFREYAGYCPAEPDLFPGTLADNLRIAKPDATDEELIAALKHAGGESLFIALNSNLNIMLENNASNMLSAVEGSYINLARAFLKKSNFIILDEPLANRNPQARKAFSNTILALKGKATIVFSSHDPELIKLADKVIVLDKGSVVYAGPIPEKNSQEMESSNHE”, for which the “soluble on expression in E. coli” value was “not soluble”.
